Patent publication US20050042205A1 (Genentech, Inc., published 2005)

Target: rat luteal LH/CG receptor (LH/CG-R) expressed from the cloned cDNA (expression vector pCLHR) in transiently … (rat, UniProt P16235)
Test: 125I-CG binding to intact 293 cells transfected with the LH/CG receptor cDNA

Kd: 0.08 to 0.16 nM
B1: human choriogonadotropin, highly purified (CR-123; 12,780 IU/mg) (ligand)
chain 1: not shown
chain 2: SKEPLRPRCRPINATLAVEKEGCPVCITVNTTICAGYCPTMTRVLQGVLPALPQVVCNYRDVRFESIRLPGCPRGVNPVVSYAVALSCQCALCRRSTTDCGGPKDHPLTCDDPRFQDSSSSKAPPPSLPSPSRLPGPSDTPILPQ
